Assay results: the Immune Epitope Database (IEDB)

Columns and labels:
[1] = target: HLA-A*02:01; test: IEDB peptide-MHC binding, cellular MHC/competitive/fluorescence; ≥ and ≤ were set here for values at or beyond the usual limits of such assays; settings: source organism: Mycobacterium tuberculosis
[2] = target: HLA-B*48:01; test: IEDB peptide-MHC binding, purified MHC/direct/fluorescence; filed as Kd, often an IC50 or EC50 that approximates it; ≥ and ≤ were set here for values at or beyond the usual limits of such assays
[3] = target: HLA-A*02:19; test: as above; settings: source organism: Vibrio cholerae V52
[4] = target: HLA-A*23:01; test: as above; settings: source organism: Vibrio cholerae V52
[5] = target: HLA-B*40:01; test: as above
[6] = target: HLA-B*15:09; test: as above; settings: source organism: Vibrio cholerae V52
[7] = target: HLA-A*69:01; test: as above
[8] = target: HLA-A*11:01; test: as above; settings: source organism: Vibrio cholerae
[9] = target: HLA-B*15:01; test: as above
[10] = target: HLA-A*24:03; test: as above; settings: source organism: Vibrio cholerae V52
[11] = target: HLA-B*44:02; test: as above; settings: source organism: Vibrio cholerae V52
[12] = target: HLA-A*01:01; test: as above
[13] = target: HLA-B*18:01; test: as above
[14] = target: HLA-B*51:01; test: as above; settings: source organism: Vibrio cholerae V52
[15] = target: HLA-A*30:01; test: as above; settings: source organism: Vibrio cholerae V52
[16] = target: HLA-B*58:01; test: as above
[17] = target: HLA-B*57:01; test: as above
[18] = target: HLA-B*27:05; test: as above
[19] = target: HLA-B*46:01; test: as above
[20] = target: HLA-A*02:12; test: as above; settings: source organism: Vibrio cholerae V52
[21] = target: HLA-A*29:02; test: as above; settings: source organism: Vibrio cholerae V52
[22] = target: HLA-B*38:01; test: as above
[23] = target: HLA-B*39:01; test: IEDB peptide-MHC binding, purified MHC/competitive/fluorescence; filed as Kd, often an IC50 or EC50 that approximates it; ≥ and ≤ were set here for values at or beyond the usual limits of such assays; settings: source organism: Vibrio cholerae MO10
[24] = target: HLA-B*15:17; test: as above; settings: source organism: Vibrio cholerae MO10
[25] = target: HLA-A*02:01; test: as above; settings: source organism: Vibrio cholerae MO10
[26] = target: HLA-A*02:03; test: as above
[27] = target: HLA-B*08:01; test: as above; settings: source organism: Vibrio cholerae MO10
[28] = target: HLA-A*03:01; test: as above; settings: source organism: Vibrio cholerae MO10
[29] = target: HLA-A*31:01; test: as above; settings: source organism: Vibrio cholerae MO10
[30] = target: HLA-C*06:02; test: IEDB peptide-MHC binding, purified MHC/direct/fluorescence; filed as Kd, often an IC50 or EC50 that approximates it; ≥ and ≤ were set here for values at or beyond the usual limits of such assays
[31] = target: HLA-A*24:02; test: IEDB peptide-MHC binding, purified MHC/competitive/fluorescence; filed as Kd, often an IC50 or EC50 that approximates it; ≥ and ≤ were set here for values at or beyond the usual limits of such assays
[32] = target: HLA-C*04:01; test: IEDB peptide-MHC binding, purified MHC/direct/fluorescence; filed as Kd, often an IC50 or EC50 that approximates it; ≥ and ≤ were set here for values at or beyond the usual limits of such assays
[33] = target: HLA-B*45:06; test: IEDB peptide-MHC binding, purified MHC/competitive/fluorescence; filed as Kd, often an IC50 or EC50 that approximates it; ≥ and ≤ were set here for values at or beyond the usual limits of such assays; settings: source organism: human gammaherpesvirus 4
[34] = target: HLA-C*04:01; test: as above; settings: source organism: human gammaherpesvirus 4
[35] = target: HLA-B*27:20; test: as above; settings: source organism: human gammaherpesvirus 4
[36] = target: HLA-B*15:42; test: as above; settings: source organism: human gammaherpesvirus 4
[37] = target: HLA-C*15:02; test: IEDB peptide-MHC binding, purified MHC/direct/fluorescence; filed as Kd, often an IC50 or EC50 that approximates it; ≥ and ≤ were set here for values at or beyond the usual limits of such assays; settings: source organism: Giardia lamblia ATCC 50803
[38] = target: HLA-C*14:02; test: as above; settings: source organism: Giardia lamblia ATCC 50803
[39] = target: HLA-B*39:01; test: as above; settings: source organism: Camelpox virus M-96
[40] = target: HLA-A*68:02; test: as above; settings: source organism: Camelpox virus M-96
[41] = target: HLA-B*07:02; test: as above; settings: source organism: Camelpox virus M-96
[42] = target: HLA-A*26:01; test: as above; settings: source organism: Variola virus
[43] = target: HLA-B*15:17; test: as above; settings: source organism: Camelpox virus M-96
[44] = target: HLA-A*02:01; test: as above; settings: source organism: Camelpox virus M-96
[45] = target: HLA-B*08:02; test: as above; settings: source organism: Variola virus
[46] = target: HLA-B*08:01; test: as above; settings: source organism: Variola virus
[47] = target: HLA-A*30:01; test: IEDB peptide-MHC binding, purified MHC/competitive/fluorescence; filed as Kd, often an IC50 or EC50 that approximates it; ≥ and ≤ were set here for values at or beyond the usual limits of such assays; settings: source organism: Vaccinia virus WR
[48] = target: HLA-B*35:01; test: as above; settings: source organism: Vaccinia virus WR
[49] = target: HLA-A*24:02; test: IEDB peptide-MHC binding, purified MHC/direct/fluorescence; filed as Kd, often an IC50 or EC50 that approximates it; ≥ and ≤ were set here for values at or beyond the usual limits of such assays; settings: source organism: Giardia lamblia ATCC 50803
[50] = source organism: Vibrio cholerae
[51] = source organism: Vibrio cholerae V52
[52] = source organism: Bacillus anthracis str. A0488
[53] = source organism: Giardia lamblia ATCC 50803
[54] = source organism: Camelpox virus M-96

AQLLTEFAI
IC50 [1]: 25 µM

EVNAHIHTM
Kd [2, 50]: ≥ 20 µM
Kd [3]: ≥ 20 µM
Kd [4]: ≥ 20 µM
Kd [5, 50]: ≥ 20 µM
Kd [6]: ≥ 20 µM
Kd [7, 50]: ≤ 0.001 µM
Kd [8]: ≥ 20 µM
Kd [9, 51]: ≥ 20 µM
Kd [10]: ≥ 20 µM
Kd [11]: ≥ 20 µM
Kd [12, 50]: ≥ 20 µM
Kd [13, 51]: 1.84 µM
Kd [14]: ≥ 20 µM
Kd [15]: ≥ 20 µM
Kd [16, 50]: ≥ 20 µM
Kd [17, 50]: ≥ 20 µM
Kd [18, 50]: ≥ 20 µM
Kd [19, 50]: ≥ 20 µM
Kd [20]: ≥ 20 µM
Kd [21]: ≥ 20 µM
Kd [22, 51]: ≥ 20 µM
Kd [23]: 1.33 µM
Kd [24]: ≥ 20 µM
Kd [25]: ≥ 20 µM
Kd ([26]; source organism: Vibrio cholerae MO10): ≥ 20 µM
Kd [27]: ≥ 20 µM
Kd [28]: ≥ 20 µM
Kd [29]: ≥ 20 µM

IYPFHVQKI
Kd [30, 52]: 0.816 µM
Kd [31, 52]: ≤ 0.0001 µM

KYFIPVIEI
Kd ([32]; source organism: Homo sapiens): ≥ 20 µM

RRYRRIYDL
Kd ([30]; source organism: human gammaherpesvirus 4): 0.017 µM
Kd [33]: ≥ 5 µM
Kd [34]: ≥ 5 µM
Kd [35]: ≤ 0.0001 µM
Kd [36]: ≥ 5 µM

RYYLSFFHI
Kd [37]: ≥ 20 µM
Kd [38]: 0.03 µM
Kd [30, 53]: ≥ 20 µM
Kd [31, 53]: 0.0014 µM

TESDAIRTL
Kd [2, 54]: ≥ 20 µM
Kd [5, 54]: 0.0225 µM
Kd [7, 54]: ≥ 20 µM
Kd [39]: 0.118 µM
Kd [40]: ≥ 20 µM
Kd [41]: ≥ 20 µM
Kd [42]: ≥ 20 µM
Kd [43]: ≥ 20 µM
Kd [44]: ≥ 20 µM
Kd [45]: ≥ 20 µM
Kd [9, 54]: ≥ 20 µM
Kd [46]: ≥ 20 µM
Kd [12, 54]: ≥ 20 µM
Kd [13, 54]: 0.017 µM
Kd [16, 54]: ≥ 20 µM
Kd [17, 54]: ≥ 20 µM
Kd [18, 54]: ≥ 20 µM
Kd [19, 54]: ≥ 20 µM
Kd ([22]; source organism: Variola virus): 3.77 µM
Kd ([26]; source organism: Vaccinia virus WR): ≥ 20 µM
Kd [47]: ≥ 20 µM
Kd [48]: 3.71 µM

YWLNTPFLV
Kd [32, 53]: ≥ 20 µM
Kd [49]: ≤ 0.001 µM
